Test results reported in article PMC4397963, “Phospho-Tyrosine(s) vs. Phosphatidylinositol Binding in Shc Mediated Integrin Signaling” (American journal of molecular biology, 2015).
“Also recorded” adds a separate entry of the source. Values belong to the molecule of their own block, whether it stands above or below them. Where a SMILES comes first, the peptide text is derived from it. Where no end group is shown, it is not given here. [ ]: non-standard residue; d: D form. pY = N[C@@H](Cc1ccc(OP(=O)(O)O)cc1)C(=O)O

Legend:
[1] = target: T1, full length Shc (1 – 473) (Homo sapiens, UniProt P29353); test: ITC binding to full length Shc; conditions: full-length Shc titrated by bi-β3, Ins(1,4,5)P3 at 3 to 1
T1 construct: The vector of pET28a-full length Shc (1 – 473), generously provided by Dr. Ladbury; His-tag (N); made in house; host or cells: E. coli BL21 (DE3), pET28a (vector a gift from Dr. Ladbury)
T1 sequence (P29353 1-473 isoform P29353-2): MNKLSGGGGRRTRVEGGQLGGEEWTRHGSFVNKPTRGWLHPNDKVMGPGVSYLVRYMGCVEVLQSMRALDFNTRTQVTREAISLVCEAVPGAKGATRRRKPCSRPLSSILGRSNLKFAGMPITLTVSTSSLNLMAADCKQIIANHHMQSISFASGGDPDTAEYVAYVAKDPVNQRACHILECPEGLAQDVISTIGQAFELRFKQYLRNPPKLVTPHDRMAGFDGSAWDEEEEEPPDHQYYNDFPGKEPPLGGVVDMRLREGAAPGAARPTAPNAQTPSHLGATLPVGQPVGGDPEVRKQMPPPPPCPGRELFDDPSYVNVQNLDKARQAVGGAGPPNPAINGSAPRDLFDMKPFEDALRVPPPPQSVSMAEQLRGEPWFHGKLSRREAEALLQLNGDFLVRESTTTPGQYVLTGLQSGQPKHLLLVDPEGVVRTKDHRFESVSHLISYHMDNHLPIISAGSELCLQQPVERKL
Method: The Shc PTB domain (17 – 207) containing the pET15b vector was transformed into a Rosetta (DE3) cell line to pursue optimal expression levels. SH2 domain (380 – 473) was cloned into NdeI and XhoI sites in pET21b vector and then transformed into a BL21 (DE3) cell line. The vector of pET28a-full length Shc (1 – 473), generously provided by Dr. Ladbury (University of Texas MD Anderson Cancer Center, TX), was expressed in a BL21 (DE3) cell line as well. Typically, 10 ml overnight culture was used to inoculate 1 liter LB broth. Cells were grown at 37°C until OD600 reached 0.6. At this point the culture was cooled to room temperature and then the overnight overexpression was induced by 1 mM isopropyl-β-D-thiogalactopyranoside. Harvested cells were kept at −20°C for future purification or resuspended in lysis buffer supplemented with protease inhibitors. Cells were further lysed by french press and the cell debris was removed by centrifugation at 18,000 rpm at 4°C. […] The overexpression of the target protein and the purified protein were confirmed by SDS-PAGE and the bands of the expected mass were observed. […]
Calorimetric measurements of a full length Shc, PTB domain, and SH2 domain to β3 phosphopeptides or PtdIns were performed on a low volume Nano ITC (TA Instruments). […] The concentration of protein samples was determined by UV measurements. […]

[2] = target: T2, Shc PTB domain (17 – 207) (Homo sapiens, UniProt P29353); test: ITC binding to Shc PTB domain; conditions: PtdIns binding to PTB domain, ITC, 25°C
T2 construct: The Shc PTB domain (17 – 207) containing the pET15b vector was transformed into a Rosetta (DE3) cell line; His-tag (N); made in house; host or cells: E. coli Rosetta (DE3), pET15b
T2 sequence (P29353 17-207 isoform P29353-2): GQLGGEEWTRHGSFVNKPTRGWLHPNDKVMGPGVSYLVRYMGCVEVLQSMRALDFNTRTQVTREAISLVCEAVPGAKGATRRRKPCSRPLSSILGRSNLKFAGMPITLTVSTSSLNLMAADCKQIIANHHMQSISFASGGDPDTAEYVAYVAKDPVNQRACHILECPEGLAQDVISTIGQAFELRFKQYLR
Method: The Shc PTB domain (17 – 207) containing the pET15b vector was transformed into a Rosetta (DE3) cell line to pursue optimal expression levels. SH2 domain (380 – 473) was cloned into NdeI and XhoI sites in pET21b vector and then transformed into a BL21 (DE3) cell line. The vector of pET28a-full length Shc (1 – 473), generously provided by Dr. Ladbury (University of Texas MD Anderson Cancer Center, TX), was expressed in a BL21 (DE3) cell line as well. Typically, 10 ml overnight culture was used to inoculate 1 liter LB broth. Cells were grown at 37°C until OD600 reached 0.6. At this point the culture was cooled to room temperature and then the overnight overexpression was induced by 1 mM isopropyl-β-D-thiogalactopyranoside. Harvested cells were kept at −20°C for future purification or resuspended in lysis buffer supplemented with protease inhibitors. Cells were further lysed by french press and the cell debris was removed by centrifugation at 18,000 rpm at 4°C. […] The overexpression of the target protein and the purified protein were confirmed by SDS-PAGE and the bands of the expected mass were observed. The determination of protein concentration by UV measurement was consistent with Bradford assay.
Calorimetric measurements of a full length Shc, PTB domain, and SH2 domain to β3 phosphopeptides or PtdIns were performed on a low volume Nano ITC (TA Instruments). All experiments were carried out in a buffer of 50 mM Tris, pH 7.5, 100 mM NaCl, 5 mM β-mercaptoethanol (unless described otherwise) at 12°C or 25°C with a stirring speed of 250 rpm to minimize the precipitation of the protein. 300 second time intervals were set between injections. The concentration of protein samples was determined by UV measurements. The titrants (β3 phosphopeptides or PtdIns) were prepared in the same buffer by the dilution of higher concentration stocks. The concentrations of the protein ranged from 30 μM to 150 μM. The concentration of protein was examined after each ITC experiment by UV to ensure the stability of proteins under the test condition. The analysis of the data was done with Nano Analyze Software (TA Instruments) suite using an “independent” model.

[3] = target: T3, Shc PTB domain (17 – 207) (UniProt P29353-2 17-207); test: ITC; Nano ITC; β3 phosphopeptide titrated into the Shc protein (30-150 μM); 25°C; 50 mM Tris, pH 7.5, 100 mM NaCl, 5 mM β-mercaptoethanol; independent model; conditions: both partners purified
T3 construct: Shc adaptor protein (p52 isoform), PTB domain, residues 17-207, from a pET15b vector; numbers count on: the p52 isoform (full length 1-473); 15N-labelled (M9 medium with 15NH4Cl) for the NMR experiments; Monomeric on Superdex-75; also called apo PTB domain; source: E. coli Rosetta (DE3), purified (Ni-NTA, Superdex-75)
T3 sequence (looked up): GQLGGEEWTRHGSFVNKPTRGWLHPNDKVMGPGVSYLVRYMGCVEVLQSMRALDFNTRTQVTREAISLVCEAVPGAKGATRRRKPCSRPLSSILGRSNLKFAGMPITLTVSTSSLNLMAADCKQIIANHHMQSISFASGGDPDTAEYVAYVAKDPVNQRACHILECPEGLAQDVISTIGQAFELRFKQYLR

[4] = target: T4, full length Shc (1 – 473) (UniProt P29353-2 1-473); test: as above; conditions: both partners purified
T4 construct: Shc adaptor protein, full length 1-473 (printed length 473 residues, the p52 isoform), from a pET28a vector provided by Dr. Ladbury; numbers count on: the p52 isoform; Monomeric on Superdex-75; also called Shc full length; p52 Shc; source: E. coli BL21 (DE3), purified (Ni-NTA, Superdex-75)
T4 sequence (looked up): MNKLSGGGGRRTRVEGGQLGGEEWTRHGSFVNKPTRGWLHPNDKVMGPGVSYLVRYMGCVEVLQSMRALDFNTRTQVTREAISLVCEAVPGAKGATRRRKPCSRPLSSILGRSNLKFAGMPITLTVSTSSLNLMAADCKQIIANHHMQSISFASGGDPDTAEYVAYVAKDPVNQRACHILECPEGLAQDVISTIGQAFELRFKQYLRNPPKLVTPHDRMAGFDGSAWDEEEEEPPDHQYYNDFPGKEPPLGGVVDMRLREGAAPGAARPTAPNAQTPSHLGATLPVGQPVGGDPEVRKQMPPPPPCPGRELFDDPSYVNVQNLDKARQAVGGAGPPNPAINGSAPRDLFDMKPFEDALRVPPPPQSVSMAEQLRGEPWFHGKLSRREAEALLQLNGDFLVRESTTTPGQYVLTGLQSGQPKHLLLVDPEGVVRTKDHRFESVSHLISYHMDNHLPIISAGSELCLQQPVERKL

[5] = target: T3, Shc PTB domain (17 – 207); test: as above; conditions: both partners purified; remark: listed apart in the source
[6] = target: T4, full length Shc (1 – 473); test: as above; conditions: both partners purified; remark: listed apart in the source
[7] = target: T3, Shc PTB domain (17 – 207); test: ITC; Nano ITC; β3 phosphopeptide titrated into the Shc protein (30-150 μM); 12°C; 50 mM Tris, pH 7.5, 100 mM NaCl, 5 mM β-mercaptoethanol; independent model; conditions: both partners purified
[8] = target: T4, full length Shc (1 – 473); test: as above; conditions: both partners purified
[9] = target: T3, Shc PTB domain (17 – 207); test: ITC; Nano ITC; β3 phosphopeptide titrated into the Shc protein over-saturated by Ins(1,4,5)P3 at 3 to 1 lipid to protein ratio; 12°C; conditions: both partners purified
[10] = target: T4, full length Shc (1 – 473); test: as above; conditions: both partners purified

change in Kd caused by Ins(1,4,5)P3 [1]: slight reduction of Kd value
Molecule: CC[C@H](C)[C@H](NC(=O)[C@H](CC(N)=O)NC(=O)[C@@H](NC(=O)[C@H](Cc1ccccc1)NC(=O)[C@@H](NC(=O)[C@H](CO)NC(=O)[C@@H](NC(=O)[C@H](C)NC(=O)[C@H](CCC(=O)O)NC(=O)[C@H](CCCCN)NC(=O)[C@H](Cc1ccc(OP(=O)(O)O)cc1)NC(=O)[C@H](CC(C)C)NC(=O)[C@@H]1CCCN1C(=O)[C@H](CC(N)=O)NC(=O)[C@H](CC(N)=O)NC(=O)[C@H](C)NC(=O)[C@@H](NC(=O)[C@H](CC(=O)O)NC(=O)[C@H](Cc1c[nH]c2ccccc12)NC(=O)[C@H](CCCCN)NC(=O)[C@H](C)NC(=O)[C@@H](N)CCCNC(=N)N)[C@@H](C)O)[C@@H](C)O)[C@@H](C)O)[C@@H](C)O)C(=O)N[C@H](C(=O)N[C@@H](Cc1ccc(OP(=O)(O)O)cc1)C(=O)N[C@@H](CCCNC(=N)N)C(=O)NCC(=O)N[C@H](C(=O)O)[C@@H](C)O)[C@@H](C)O [bi-β3] (H-RAKWDTANNPL[pY]KEATSTFTNIT[pY]RGT-OH)

ΔG ([2]; pH 7.5): No binding | ΔH ([2]; pH 7.5): No binding | −TΔS ([2]; pH 7.5): No binding
Molecule: Phosphatidylinositol-5-phosphate [PtdIns(5)P1]
Kd ([2]; 50 mM Tris pH 7.5, 100 mM NaCl, 5 mM β-mercaptoethanol, "independent" model, dihexanoyl- or dioctonoyl- PtdIns): not able to detect the binding; also recorded: does not show to bind; also recorded: No binding

Kd [3]: 350 nM | dH [3]: -6.07 kcal/mol | Kd [4]: 1330 nM | dH [4]: -1.77 kcal/mol | Kd [5]: 340 nM | stoichiometry N [5]: 1 ± 0.15 | stoichiometry N [6]: 1 ± 0.15 | Kd [7]: 1050 nM | dH [7]: -5.78 kcal/mol | Kd [8]: 820 nM | dH [8]: -5.03 kcal/mol | Kd [9]: 1120 nM | dH [9]: -5.65 kcal/mol | Kd [10]: 870 nM | dH [10]: -5.05 kcal/mol
B1: c-β3: β3 integrin derived peptide phosphorylated at C-terminal tyrosine (Y759) (peptide)
peptide: ATSTFTNIT[pY]RGT
notes: integrin β3 cytoplasmic tail, residues 750-762, Y759 phosphorylated; also called mono-phosphorylated peptide; source: synthetic peptide (NEO-Peptide)
